Experiment: yeast display, Sf9 membrane polyspecificity reagent, FACS + sequencing; frameworks hold sequencing errors
Method in brief: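 Using colony PCR, genes from sorted yeast display clones were amplified, then sequenced on MiSeq at 2 × 250 and filtered by CDR length. The clones had been stained with 10% biotinylated, detergent-solubilized Sf9 membrane reagent for 1 hour at 4 °C and sorted by FACS into low and high (top ~1%) gates on anti-HA and streptavidin fluorescence. Polyreactivity labels come from the gate of origin.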

Row | Sequence | polyreactivity (PSR sort gate)
1 | QVQHVESGGNLFKAGGSLRLSCAASGITFVYNAMGWYRPAPGKERELVDGITWSGSSTYYADSVKGRFTISRDNAKNTVYFHMNSLKPDDTAVYYCDAYLYDRTTRYTYYYWGQGTQVTVSS | high polyreactivity
2 | QVQLVESGGGLVQAGGSLRLSCAASGYTFTRNAMGWYRQAPGKERELVATISGSGGGTYYADSVKGRFTISRDNAKNTVYLQMNSLKPEDTAVNYCNARRWFYWQGTARYDYWGQGTQVTVSS | low polyreactivity
3 | QVQLVESGGGLVQAGGSLRLSCAASGYIFVTNAMGWYRQAPGKERELVAAISYRGGSTSYADSVKGRFTISRDNAMNTVYLQMNSLKPEDTAVYYCNAVTFPLGYLRFYYWGQGTQVTVSS | low polyreactivity
4 | QVQLVESGGRLVQAGGSLRLSCAASGLTFSSYAMGWYRQAPGKERQLVAAISRGGGSTYYADSVKGRFTISRDNAKNTGYLQMNSLKPEDTAVYYCAADSGFWWLYDYWGQGTHVTVSS | high polyreactivity
5 | QVQLVESGGGLVQAGGSLRLSCAASGRSFGTNAMVSYIQAPGKEREFVAAIRKSGATTYYADSVKGRFTISRDNAKNTVYLQMNSLKPDDTAVYYCAADFFYYGKWYSGYYWGQGTQVTVSS | high polyreactivity
6 | QVQLVETGGGLVQAGGSLRLSCAASGFTSLTYAMGWYRQAPGKERELVAAITFSGGSTYYADSVKGRFTISRDNAKNTVYLQMNSLKPEDTAVYYCARDGLWYNAIWEYDYWGLGTQVTVSS | high polyreactivity
7 | QVQLVESGGGLVQAGGSLRLSCAPSGYIFQAYVMGWYRPAPGKERELVAAITSGGGTYYADSVKGRFTISRDNAKNTVYLQMISLKPEDTAVYYCAARYTQRPRRNYWGQGSQVTVSS | high polyreactivity
8 | QVQLVESGGGLVQAGGSLRLSCAASGRIFYRNAMGWYRKAPGKEREWVAAISSSAGSTFYADSVKGRFTISRDNSKNTVYLQMNSLKPEDTAVYYCAAGSGTFVTRYRYGYWGQGTQVTVSS | high polyreactivity
9 | QVQLVESGGGLVQAGGSLRLSCAASGSTIRYYAMGWYRQAPGKERELVAAITKSGGSTYYADSVKGRFTISRDNAKNTVYLQMNSLKPEDTAVYYCAAVRRWYYPALSEHDYWGQGTQVTVSS | low polyreactivity
10 | QVQLVESGGGLVQAGGSLRLSCAASGRIFIRNAMGWYRQAPGKERELVAAITQSGGSTYYADSVKGRFSISRVYAKNTVYLQMNSLKPEDTAVYYCNAVRYNCVGYDYWGQGTQVTVSS | high polyreactivity
11 | QVQLVESGGGLVQAGGSLRLSCAASGSIFLKYAMGWYRQAPGKERELVAAISSRGGSTYYADSVKGRFTISRDNAKNTVYLQMNSLKPEDTAVYYCAKVRQTYFGWYSTTRDYWGQGTQVTVSS | high polyreactivity
12 | QVQLVESGGGLVQAGGSLRLSCAASGSILPYYAMGWYRPAPGKERELVATITDGTDTYYADSVKGRFTISRDNAKNTVYLQMTSLKPEDTAVYYCARKQYWGYDYWGQGTQVTVSS | low polyreactivity
13 | QVQLVESGGGLVQAGGSLRLRGAASGSIFSSNAKGWCRPAPGKERELVAAICRSGGDTYYADSVKGRFTISRDNAKNTVYLQMNSLKPVDTAVYYCAARNSYGGPTYEHYYWGQGTQVSVSS | high polyreactivity
14 | QVQLVESGGGLVQAGGSLRLSCAASGFTFAGYAMGWYRQAPGKERELVAAISYSGGRTYYADSVKGRFTISRDNEKNTVYLQMNSLKPEDTAVYYCNADPAYYRGYYRQGYDYWGQGTQVTVSS | high polyreactivity
15 | QVQLVESGGGLVQAGGSLRLSCAASGRIFSWNAMGWYRQAPGKERELVARITWNGGRTYYADSVKGRFTISRDNAKNTVYLQMNSLKPEDTAVYYCNAERFDLTYNYWGQGTQVTVSS | high polyreactivity
16 | QVQLVESGGGLVQAGGSLRLSCAASGSIFDVNAMGWYRQAPGKERELVAAISDSGGSTFYADSVKGRFTISRDNAKNTVYLQMNTLKPEDTGVYYCNTEDFFNVPEMDSWGQGTQVTVSS | low polyreactivity
17 | QVQLVESGGGLVQAGGRLRLSCAASGRTFGQNAMGWYRQAPGKERELVAVISSRGGSTYYADSVKGRFTISRDNAKNTVYLQMNSLKPEDTAVYYCAKARRKPGAVDYWGQGTQVTVSS | high polyreactivity
18 | QVQLVESGGGLVQAGGSLRLSCAASGFTFPRYAMGWYREAPGKEREFVAAINRGGSTYYADSVKGRFTISRDNAKNTVYLQMNSLKPEDTAVYYCITDRKNRPSPGDYYWGQGTQVTVSS | low polyreactivity
19 | QVQLVESGGGLVQAGGSLRLSCAASGLIFYRYAMGWYRQAPGKERELVAVISWIGCNTYYADSVKGRFTISRDNAKNTVYLQMNSLKPEDTAVYYCAVATGPVSYRRYYWGQGTQVTVSS | high polyreactivity
20 | QVQLVESGGGLVQAGGSLRLSWAASGFTFPAYPMGWYRQAPGKERELVASISSSGRTNYADSEKGRFTISRDNAKNTVYLEMYSLKPEDTAVYYCAALLKQRSTSYGYWGQGSQVTVSS | high polyreactivity
21 | QVQLVESGGGLVQAGGSLRLSCAASGSIFRPYTMGWYRQAPGKERELVATISSTGITNYADSVKGRFTISRDNAKNTVYLQMNSLKPEDTAVYYCAARGRYVTPQPSYDYWGQGTQVTVSS | high polyreactivity
22 | QVQLVESGGGLVQAGGSLRLSCAAYGFIFLENDMGWYRQAPGKERELVASINSGSDTNYADSVKGRFTISRDNAKNTVYLQMNSLKPEDTAVYYCNASYNGVPARYDYWGQGTQVTVSS | low polyreactivity

Row | Sequence | polyreactivity (PSR sort gate)
23 | QVQLVESGGGLVQAGGFLRLSCASSGSTFIYYAMGWYREAPGKERELVAAISWSGGRTYYADAVKGRFTISRDNAKNTVYLQMTSLKPEDTAVDYCAAESYYSDGYPGVDYWGQATQVTVSS | high polyreactivity
24 | QVQLVESGGGLVQAGGSLRLSCAASGFIFKPYAMGWYRQAPWKERELVAAITVNGGTTYYADSVKGRFTISRDNAKNTVYLQMNSLKPEDTAVYYCNRGRPGGPSWYHYDYWGQGTQVTVSS | high polyreactivity
25 | QVQLVESGGGLVQAGGSLRLSCAASGITFGYYAMGWYRQAPGKERELVAAISWSGDSTYYADSVKGRFTISRDNAKNTVSLQMNSLKPEDTPVYYCTRGSSWEYGAEYNYWGQGTQVTVSS | low polyreactivity
26 | QVQLVESGGGLVQAGGILRLSCAASGRTFSWNAMGWYRQAPGKERELVAAISNSGGSTYYADSVKGRFTISRDNAKNTVFLQMNSLKPEDTAVYYCAVYRYYGFSLWYDYWGQGTQVTVSS | low polyreactivity
27 | QVQLVESGVGLVQAGGSLRLICAASGSTFAYNDMGWYRQAPGKERELVAAINGGGGSTYYGDSVKGRFTISRDNAKNTVYLHMNSLKPEVTAVYYCAKGEWSYVDSFGPYYDLVYWGQGTQVTVSS | low polyreactivity
28 | QVQLVESGGGLVQAGGSLRLSCAASVRTFYIYAMGWYIQAHGKERELVAAITSVGSTNYADSVKGRFTISRDNAKNTVNLQMNSLKPEDTAVYYCAAESTEGTSGDYDYWGQGTQVTVSS | low polyreactivity
29 | QVQLVESGGGLVQAGGSLRLSCAASGGIFYLYAMGWYRQAPGKERELVAAITWSADSTYYADSVKGRFTISRDNAKYTVYLQMNSLKPEDTAVYYCNADVAWQYWNGWSWDIYDYWGQGTQVTVSS | low polyreactivity
30 | QVHLVESGRGLVQAGGSLSVTCSASGFTFYWYTMGWYRRAPGKERELVAAISRRGGSTSYADSVKGRFTISRDNAKNTVYLKMKILKPDDTAVYYCAKTPGWTDYDYWGQGTQVTVSS | high polyreactivity
31 | QVQLVESGGGLVQAGGSLRLSCAASGSIFVGNAMGLYRQAPGKERELVAAISSSGGRTFYADSVKGRFTISRDIAKNSVYLQMNSLKPEDTAVYYCAAYLWSYVFNLYEYWGQGTQVTVSS | high polyreactivity
32 | QVQLVESGGGLVQAGGSLRLSCAASGIIFQNYAMGWYRPAPGKERELVAVISNTGSTNYADSVKGRFTISRDNAKNTVYLQMNSLKPEDTAVYYCAAEFRVVDWLWFDYWGQGTQVTVSS | high polyreactivity
33 | QVQLVESGGGLVQAGGSLRLSCAASGRIFEVYAMGWYRQAPGKERELVAAITSSGGSRTYYADSVKGRFTISRDNAKNTVYLQMNSLKPEDTAVYYCNDYGGRWIGGRRAYRYNYWGQGTQVNVSS | high polyreactivity
34 | QVQLVESGGGLVQAGGSLRLTCAASGYTFRRTGMGWYRQAPGKERELVAAITNGGSTKYADSVKGRYTISRDNAKNTVYLQMNSLKPEDTAVYDCFYYVYAYDYWGQGTQVTLSS | high polyreactivity
35 | QVQLVESGGGLVQAGGSLRLSCAASGRIFGNYAMGWYRQAPGKERELVAAISGGGSTYYADSVKGRFTISRDNAKNTVYLQMNSLKPEDTAVYYCNAKTYYPPFGYWGQGTQVTVSS | low polyreactivity
36 | QVQLVESGGGLVQAGGSLRLSCAASYNAMGWYRQAPGKEREFVAGITQSGGSTYYADSVKGRFTISRDNAKNTVYLQMNSLKAEDTAVYYCAKRLYKWGQGTQVTVSS | low polyreactivity
37 | QVQLVESAGGLVQAGGSLRLSCAASGYIFSYNAMGGYRQAPGKERELVAAITASGGGTYYADSVKGRFTISRDNAKNTVYLHMNSLKQEDTAVYYCAADLSWSRVVFGDYDYWGQGTQVTVSS | low polyreactivity
38 | QVQLVESGGGLVQAGGSLRLICAASALIFGAYTMGWYIQAPGKERELVAAIRRSGSTYYPDSVKGRFTISRDNAKNTVYLQMNSLKPEDTAVYYGNARIGPGRYTYYRSGYDYWGQGTQVTVSS | high polyreactivity
39 | QVQLVESGGGLVQAGGSLRLSCAASGFTFVYYVMGLYRQAPGKERELVAAINAGGGSTYYADSVKGRFTISRDNAKNTVYLQMNSLKPEDTAVYYCNARVRVRLGRNWSSYYYWGQGTQVTVST | high polyreactivity
40 | QVQLVESGGGLVQAGGSLRLSCAASGSTFRNNAMGWYRQAPGKERELVAAISWIGGDTYYADSVKGRFTISRDNAKNTVYLQMNSLKPEDTAVYYCNRDFVYWPWFKFDYWGQGTQVTVSS | low polyreactivity
41 | QVQLVESGGGLVQAGGSHRLSCAASGFIFRWYAMGWYRQAPGKERELVAAISRSGDSTYYADSVKGRFTISRDNAKNTVYLQMNSLKPDDTAVYYCAADDRYYTYGYDYWGQGTQVTVSS | low polyreactivity
42 | QVQLVESGGGLVQAGGSLRLSCAASGSIFPRNAMGWYRQAPGKERELVAAITTTGGITHYADSVKGRFTISRDNAKNTVYLQMNSLKPEDTAVYYCAASNEVPWRFPDDYWGQGTQVTVSA | low polyreactivity
43 | QVQLVESGGGLDQAGGSLRLSCAASGFIFVRNAMGWYRQPPGKERELVAAITRSGGSTSYADSVKGRFTISRDNAKNTVYLQMNSLKPEDTAVYYCASERYPWQLYWSYYGYYYWGQGTQVTVSS | high polyreactivity

From the nanobody polyreactivity screen of Harvey et al. (2022)
